These are literature values, as cited in publication PMC10480133.

Usually Kd stands for the concentration at which binding is half-saturated.

The data set deals with GRGDSPK peptide.

As to Integrin αvβ3 (from UniProt P06756), the Kd is 12.2 nM.
